For series [1], the target named is T1, SCL27 (His-SCL27) (Arabidopsis thaliana) (UniProt Q7XJM8).
T1 sequence: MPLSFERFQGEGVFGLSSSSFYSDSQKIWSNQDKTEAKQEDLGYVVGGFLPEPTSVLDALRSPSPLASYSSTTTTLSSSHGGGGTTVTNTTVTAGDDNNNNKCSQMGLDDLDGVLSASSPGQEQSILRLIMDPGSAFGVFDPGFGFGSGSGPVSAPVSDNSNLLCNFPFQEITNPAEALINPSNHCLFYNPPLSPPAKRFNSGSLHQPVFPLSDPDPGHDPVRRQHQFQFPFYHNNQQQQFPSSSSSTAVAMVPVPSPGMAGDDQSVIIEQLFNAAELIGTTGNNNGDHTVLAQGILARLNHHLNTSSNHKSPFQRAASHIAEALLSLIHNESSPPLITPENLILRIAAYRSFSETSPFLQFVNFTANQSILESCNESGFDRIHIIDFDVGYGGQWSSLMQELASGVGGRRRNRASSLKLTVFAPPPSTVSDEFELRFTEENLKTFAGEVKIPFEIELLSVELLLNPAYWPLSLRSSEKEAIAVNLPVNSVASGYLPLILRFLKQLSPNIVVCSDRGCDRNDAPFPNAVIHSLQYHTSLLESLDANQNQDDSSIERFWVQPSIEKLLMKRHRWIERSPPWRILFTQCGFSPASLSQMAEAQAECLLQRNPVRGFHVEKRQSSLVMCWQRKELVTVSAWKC
The series is described as follows: EMSA. As to conditions: 1 nM Cy5-DNA, 20 uL binding buffer (composition not given, ref 60), 30 C 20 min; 6% native PAGE, 0.5x TBE, 4 C. A general note: A gel shift assay detects complexes by their altered migration in electrophoresis.

The target of another series is T2, SCL27 (His-SCL27) (Arabidopsis thaliana, UniProt Q7XJM8 1-640).
T2 sequence: T1 sequence
The series is described as follows: EMSA; 1 nM probe; 1 nM Cy5-DNA, 20 uL binding buffer (composition not given, ref 60), 30 C 20 min; 6% native PAGE, 0.5x TBE, 4 C. Particulars: protein: recombinant, tags: His (pET28b).

“AGCCAGTGGCGATAAGCCTGTTATAGGCATATGAACAAGACAATGGAGGAGGAGGAGGAGATGGTCTAGAAACCGTGACGACGGAGGAGGAAAAGAAAAGAGATGAAGTAGAAGAAGAAAATAAAATAAAATAGAGGCAAAAATGGAAATTTTCATTGGAATTTTGCAACTTTTAGAAATTGTAGAAGATGAAGAGAGCTGTGTGATCCAAAAGTGCTTATCGCCACTGGCT (double strand) [PORC promoter fragment III]”: in series [1], the binding entry was “binds”.
As to “AGCCAGTGGCGATAAGGATTAAAGAAACGGGTGGAATACACAAGAACAATGTATATGCAAGATTGCAGTGGTGTCGTTGATTACTCTCAATTTGATGATAAGATTCAAATTTGATATGAGTTTGGAGAAGAAGAAGATGACGAAGAGATCATTACTTGGCGATGAGACGAACAAGCAGGAAAGTATTGCCTACGCTTCCTGAACTTCATGAGATGCTTATCGCCACTGGCT (double strand) [PORC promoter fragment I]”, the binding entry in series [1] is reported as “no binding”.

B1: W (62-bp GT element fragment) (dsDNA)
DNA 1: GGAAAAGAAAAGAGATGAAGTAGAAGAAGAAAATAAAATAAAATAGAGGCAAAAATGGAAAT
DNA 2: ATTTCCATTTTTGCCTCTATTTTATTTTATTTTCTTCTTCTACTTCATCTCTTTTCTTTTCC
For the molecule B1, the binding result with SCL27 (His-SCL27) (three G(A/G)(A/T)AA(A/T) GT elements, mutant) is on record as “binds”.

B2: M (62-bp mutated GT element fragment) (dsDNA)
DNA 1: CCCGGGGAAAAGAGATGAAGTAGAAGAACCCGGGAAAATAAAATAGAGGCAAAAATCCCGGG
DNA 2: CCCGGGATTTTTGCCTCTATTTTATTTTCCCGGGTTCTTCTACTTCATCTCTTTTCCCCGGG
As for B2, the binding result with SCL27 (His-SCL27) is given as “no binding”.

(Values after article PMC4125095, “Arabidopsis miR171-Targeted Scarecrow-Like Proteins Bind to GT cis-Elements and Mediate Gibberellin-Regulated Chlorophyll Biosynthesis under Light Conditions”.)
